Two molecules from article PMC8232673, “Hybrid-Type SELEX for the Selection of Artificial Nucleic Acid Aptamers Exhibiting Cell Internalization Activity” can be followed below.

Series [1] concerns the target TROP2 FcHis (human TROP2 fused to IgG1 FcHis) (human, UniProt P09758 27-274+P01857:100-328, internal_change). The series is described as follows: capillary electrophoresis; 10 nM DNA, 4-fold protein; 20 mM Tris-HCl pH 7.4, 10 mM NaCl, 1 mM MgCl2, 0.05% Tween 20; 10 nM aptamer, 37 °C 30 min, then held at 15 °C; CE running buffer 100 mM sodium borate pH 8.35. The following applies: protein: commercial; IgG1 Fc-His fusion; chain copies: 2; label: 5' FAM.

Series [2] deals with FcHis (human IgG1 Fc-His, counter-target for specificity) (human, UniProt P01857 100-328). The series is described as above. The following applies: protein: commercial; tags: His; chain copies: 2; label: 5' FAM.
For another series, the target named is IgG1 Fc (Homo sapiens (Human), UniProt P01857 104-328, glycosylated). Put plainly: capillary electrophoresis; 20 mM Tris pH 7.4, 10 mM NaCl, 1 mM MgCl2, 0.05% Tween 20, 37 C. As to conditions: tags: His; chain copies: 2; label: 5'-FAM.

Sequence of TROP2 FcHis (human TROP2 fused to IgG1 FcHis) (P09758 other isoform, or with tags, fused parts or gaps): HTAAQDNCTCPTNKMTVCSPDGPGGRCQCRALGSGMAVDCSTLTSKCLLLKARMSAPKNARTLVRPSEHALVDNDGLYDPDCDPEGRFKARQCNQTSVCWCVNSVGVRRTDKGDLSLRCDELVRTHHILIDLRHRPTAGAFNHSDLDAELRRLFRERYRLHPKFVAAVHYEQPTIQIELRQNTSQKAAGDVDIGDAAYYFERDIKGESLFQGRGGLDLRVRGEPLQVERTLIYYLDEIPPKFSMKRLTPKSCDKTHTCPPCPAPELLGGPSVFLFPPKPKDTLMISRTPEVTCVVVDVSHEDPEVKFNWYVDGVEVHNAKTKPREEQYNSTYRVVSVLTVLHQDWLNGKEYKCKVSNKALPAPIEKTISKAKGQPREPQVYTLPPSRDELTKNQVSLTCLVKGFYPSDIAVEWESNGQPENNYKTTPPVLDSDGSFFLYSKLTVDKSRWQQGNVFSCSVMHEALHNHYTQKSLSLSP

B1: ssDNA_neg (ssDNA)
DNA: TCGCCTTGCCGGATCGCAGACTTCCCCCCACTCCACTTCTTACTCCTTTCTGGTCCGTGAGCCTGACACC
Regarding B1, the binding result in series [1] and in series [2] was “no binding” throughout.

B2: Tac-A5 (ssDNA)
DNA: TCGCCTTGCCGGATCGCAGATCTGTTCCGTGTTCGTTCCTTTCCTTGTTGTGGTCCGTGAGCCTGACACC
modifications: every T at positions 21-70 is 5-[(3-indolyl)propionamide-N-allyl]-dU (Utrp); T in 5' primer region (1-20) natural
As to B2, the dissociation constant (Kd) in the series with IgG1 Fc is > 1000 nM.
